Reference: the supplement of paper PMC6757056
± gives the standard deviation of the averaged measurements.

B1: library; a variant is named by its letters at N, in order (parent)
chain: GCUGUCACCGGUGUAUUACCCUAGUGGUCGACCGGUCUGAUGAGUCUNNNNNNAGACGAAACAGC

Experiments:
hypoxanthine [1] = variants of: B1; experiment: normalized RNA/DNA level with ligand (relative to sTRSVctl = 100) (log10 (% of sTRSVctl)); ligand: hypoxanthine (xanthine aptamer); higher = less ribozyme self-cleavage, higher mRNA level; details: ligand concentration (+) RNA-Seq: 5 mM, HEK293T, reporter: mCherry (pCS4076), ligand present: yes
Summary of the method: (§1)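 Library plasmids carrying ribozyme switches linked to mCherry, or to eGFP in some ligand experiments, were transfected into HEK293T at 4 µg per 6-well well, with any ligand added 1 h earlier. Seventy-two hours on, total RNA was extracted with EDTA and reverse-transcribed, amplified, barcoded and sequenced. RNA level was RNA over DNA reads normalized to a spiked-in non-cleaving sequence or to the top sequences, then scaled and log-transformed. The top set was 25 sequences, the transform was ×100 and log10, and sequences needed ≥100 DNA reads.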

hypoxanthine [2] = variants of: B1; experiment: normalized RNA/DNA level without ligand (relative to sTRSVctl = 100) (log10 (% of sTRSVctl)); ligand: hypoxanthine (xanthine aptamer); higher = less ribozyme self-cleavage, higher mRNA level; details: HEK293T, reporter: mCherry (pCS4076), ligand present: no
Summary of the method: as §1

Variant | normalized RNA/DNA level with ligand (log10) (hypoxanthine [1]) | normalized RNA/DNA level without ligand (log10) (hypoxanthine [2])
GCUGUCACCGGUGUAUUACCCUAGUGGUCGACCGGUCUGAUGAGUCUAGUUAUAGACGAAACAGC [AGUUAU] | 1.89 ± 0.057 | 1.8 ± 0.068
GCUGUCACCGGUGUAUUACCCUAGUGGUCGACCGGUCUGAUGAGUCUUGUUGCAGACGAAACAGC [UGUUGC] | 1.943 ± 0.015 | 1.87 ± 0.051
GCUGUCACCGGUGUAUUACCCUAGUGGUCGACCGGUCUGAUGAGUCUUGUUGGAGACGAAACAGC [UGUUGG] | 1.91 ± 0.058 | 1.53 ± 0.04
GCUGUCACCGGUGUAUUACCCUAGUGGUCGACCGGUCUGAUGAGUCUUGUUGAAGACGAAACAGC [UGUUGA] | 1.9 ± 0.021 | 1.674 ± 0.0081
GCUGUCACCGGUGUAUUACCCUAGUGGUCGACCGGUCUGAUGAGUCUGGUUAAAGACGAAACAGC [GGUUAA] | 1.93 ± 0.062 | 1.77 ± 0.072
GCUGUCACCGGUGUAUUACCCUAGUGGUCGACCGGUCUGAUGAGUCUGGUUAUAGACGAAACAGC [GGUUAU] | 1.94 ± 0.052 | 1.79 ± 0.03
GCUGUCACCGGUGUAUUACCCUAGUGGUCGACCGGUCUGAUGAGUCUAGUUGUAGACGAAACAGC [AGUUGU] | 1.93 ± 0.043 | 1.63 ± 0.076
GCUGUCACCGGUGUAUUACCCUAGUGGUCGACCGGUCUGAUGAGUCUAGUUGAAGACGAAACAGC [AGUUGA] | 1.915 ± 0.0047 | 1.63 ± 0.032
GCUGUCACCGGUGUAUUACCCUAGUGGUCGACCGGUCUGAUGAGUCUCGUUUAAGACGAAACAGC [CGUUUA] | 1.89 ± 0.032 | 1.68 ± 0.013
GCUGUCACCGGUGUAUUACCCUAGUGGUCGACCGGUCUGAUGAGUCUCGUUGCAGACGAAACAGC [CGUUGC] | 1.96 ± 0.1 | 1.91 ± 0.088
GCUGUCACCGGUGUAUUACCCUAGUGGUCGACCGGUCUGAUGAGUCUCGUUGAAGACGAAACAGC [CGUUGA] | 1.96 ± 0.024 | 1.834 ± 0.014
GCUGUCACCGGUGUAUUACCCUAGUGGUCGACCGGUCUGAUGAGUCUCGUUGUAGACGAAACAGC [CGUUGU] | 1.98 ± 0.05 | 1.89 ± 0.059
GCUGUCACCGGUGUAUUACCCUAGUGGUCGACCGGUCUGAUGAGUCUCGUGUUAGACGAAACAGC [CGUGUU] | 1.97 ± 0.054 | 1.89 ± 0.071
GCUGUCACCGGUGUAUUACCCUAGUGGUCGACCGGUCUGAUGAGUCUCGUGUGAGACGAAACAGC [CGUGUG] | 1.903 ± 0.015 | 1.75 ± 0.08
GCUGUCACCGGUGUAUUACCCUAGUGGUCGACCGGUCUGAUGAGUCUCGUUCGAGACGAAACAGC [CGUUCG] | 1.9 ± 0.025 | 1.84 ± 0.052
GCUGUCACCGGUGUAUUACCCUAGUGGUCGACCGGUCUGAUGAGUCUCGUUCAAGACGAAACAGC [CGUUCA] | 1.974 ± 0.012 | 1.758 ± 0.014
GCUGUCACCGGUGUAUUACCCUAGUGGUCGACCGGUCUGAUGAGUCUCGUUCCAGACGAAACAGC [CGUUCC] | 1.98 ± 0.032 | 1.913 ± 0.017
GCUGUCACCGGUGUAUUACCCUAGUGGUCGACCGGUCUGAUGAGUCUCGUUCUAGACGAAACAGC [CGUUCU] | 1.97 ± 0.046 | 1.843 ± 0.012
GCUGUCACCGGUGUAUUACCCUAGUGGUCGACCGGUCUGAUGAGUCUAGUGUUAGACGAAACAGC [AGUGUU] | 1.96 ± 0.031 | 1.81 ± 0.027
GCUGUCACCGGUGUAUUACCCUAGUGGUCGACCGGUCUGAUGAGUCUAGUGUCAGACGAAACAGC [AGUGUC] | 1.98 ± 0.11 | 1.88 ± 0.02
GCUGUCACCGGUGUAUUACCCUAGUGGUCGACCGGUCUGAUGAGUCUUGUGUUAGACGAAACAGC [UGUGUU] | 1.95 ± 0.071 | 1.887 ± 0.0068

Variant | normalized RNA/DNA level with ligand (log10) (hypoxanthine [1]) | normalized RNA/DNA level without ligand (log10) (hypoxanthine [2])
GCUGUCACCGGUGUAUUACCCUAGUGGUCGACCGGUCUGAUGAGUCUGGUGUUAGACGAAACAGC [GGUGUU] | 1.97 ± 0.051 | 1.88 ± 0.03
GCUGUCACCGGUGUAUUACCCUAGUGGUCGACCGGUCUGAUGAGUCUAGUUCGAGACGAAACAGC [AGUUCG] | 1.857 ± 0.017 | 1.43 ± 0.021
GCUGUCACCGGUGUAUUACCCUAGUGGUCGACCGGUCUGAUGAGUCUAGUUCUAGACGAAACAGC [AGUUCU] | 1.8964 ± 0.00099 | 1.86 ± 0.056
GCUGUCACCGGUGUAUUACCCUAGUGGUCGACCGGUCUGAUGAGUCUAGUUCCAGACGAAACAGC [AGUUCC] | 1.922 ± 0.0092 | 1.886 ± 0.0063
GCUGUCACCGGUGUAUUACCCUAGUGGUCGACCGGUCUGAUGAGUCUGGUUCCAGACGAAACAGC [GGUUCC] | 1.99 ± 0.081 | 1.95 ± 0.022
GCUGUCACCGGUGUAUUACCCUAGUGGUCGACCGGUCUGAUGAGUCUGGUUCAAGACGAAACAGC [GGUUCA] | 1.916 ± 0.0031 | 1.89 ± 0.046
GCUGUCACCGGUGUAUUACCCUAGUGGUCGACCGGUCUGAUGAGUCUGGUUCUAGACGAAACAGC [GGUUCU] | 1.977 ± 0.018 | 1.9 ± 0.022
GCUGUCACCGGUGUAUUACCCUAGUGGUCGACCGGUCUGAUGAGUCUGGUUCGAGACGAAACAGC [GGUUCG] | 1.92 ± 0.063 | 1.69 ± 0.051
GCUGUCACCGGUGUAUUACCCUAGUGGUCGACCGGUCUGAUGAGUCUCGUUAGAGACGAAACAGC [CGUUAG] | 1.944 ± 0.01 | 1.77 ± 0.17
GCUGUCACCGGUGUAUUACCCUAGUGGUCGACCGGUCUGAUGAGUCUCGUUACAGACGAAACAGC [CGUUAC] | 1.91 ± 0.082 | 1.717 ± 0.0087
GCUGUCACCGGUGUAUUACCCUAGUGGUCGACCGGUCUGAUGAGUCUCGUUAUAGACGAAACAGC [CGUUAU] | 1.916 ± 0.006 | 1.753 ± 0.011
GCUGUCACCGGUGUAUUACCCUAGUGGUCGACCGGUCUGAUGAGUCUUGUUUAAGACGAAACAGC [UGUUUA] | 1.942 ± 0.0063 | 1.88 ± 0.035
GCUGUCACCGGUGUAUUACCCUAGUGGUCGACCGGUCUGAUGAGUCUUGUUCAAGACGAAACAGC [UGUUCA] | 1.96 ± 0.093 | 1.87 ± 0.029
GCUGUCACCGGUGUAUUACCCUAGUGGUCGACCGGUCUGAUGAGUCUUGUUCCAGACGAAACAGC [UGUUCC] | 2.03 ± 0.011 | 1.93 ± 0.022
GCUGUCACCGGUGUAUUACCCUAGUGGUCGACCGGUCUGAUGAGUCUUGUUCUAGACGAAACAGC [UGUUCU] | 1.93 ± 0.058 | 1.97 ± 0.051
GCUGUCACCGGUGUAUUACCCUAGUGGUCGACCGGUCUGAUGAGUCUUGUUCGAGACGAAACAGC [UGUUCG] | 1.94 ± 0.074 | 1.8368 ± 0.00097
GCUGUCACCGGUGUAUUACCCUAGUGGUCGACCGGUCUGAUGAGUCUGGUUGAAGACGAAACAGC [GGUUGA] | 1.94 ± 0.046 | 1.64 ± 0.021
GCUGUCACCGGUGUAUUACCCUAGUGGUCGACCGGUCUGAUGAGUCUGGUUGUAGACGAAACAGC [GGUUGU] | 1.94 ± 0.065 | 1.76 ± 0.035
GCUGUCACCGGUGUAUUACCCUAGUGGUCGACCGGUCUGAUGAGUCUUGUUAAAGACGAAACAGC [UGUUAA] | 1.94 ± 0.029 | 1.841 ± 0.014
GCUGUCACCGGUGUAUUACCCUAGUGGUCGACCGGUCUGAUGAGUCUUGUUAGAGACGAAACAGC [UGUUAG] | 1.884 ± 0.0019 | 1.69 ± 0.038
GCUGUCACCGGUGUAUUACCCUAGUGGUCGACCGGUCUGAUGAGUCUUGUUACAGACGAAACAGC [UGUUAC] | 1.912 ± 0.0067 | 1.836 ± 0.0054
